T1: human TROP2 protein (Sino Biological, #10428-H08H) (human, UniProt P09758 27-274)
T1 construct: bought protein; also called human Trop2 protein antigen (His tag); not shown: His tag
T1 sequence (looked up): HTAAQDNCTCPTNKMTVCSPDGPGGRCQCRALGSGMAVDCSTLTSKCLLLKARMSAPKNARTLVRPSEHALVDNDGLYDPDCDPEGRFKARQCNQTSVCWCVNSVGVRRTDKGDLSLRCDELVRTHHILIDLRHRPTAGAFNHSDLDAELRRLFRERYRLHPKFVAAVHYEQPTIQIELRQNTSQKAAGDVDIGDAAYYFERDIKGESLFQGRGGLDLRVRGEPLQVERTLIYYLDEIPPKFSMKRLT

T2: monkey Trop2 protein (Sino Biological, #90893-C08H) (monkey, UniProt A0A2K5UE71 27-274)
T2 construct: bought protein; also called monkey Trop2 protein antigen (His tag)
T2 sequence: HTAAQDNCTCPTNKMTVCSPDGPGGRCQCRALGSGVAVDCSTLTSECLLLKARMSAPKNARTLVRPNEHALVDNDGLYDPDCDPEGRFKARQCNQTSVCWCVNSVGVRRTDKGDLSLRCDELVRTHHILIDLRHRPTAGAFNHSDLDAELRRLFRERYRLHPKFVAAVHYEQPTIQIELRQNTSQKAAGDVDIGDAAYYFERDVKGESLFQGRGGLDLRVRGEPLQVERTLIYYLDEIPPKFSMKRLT

T3: human Trop2 on cells (human, UniProt P09758 27-323)
T3 construct: whole, on cells; also called hTrop2; 293T-human Trop2 cells
T3 sequence (looked up): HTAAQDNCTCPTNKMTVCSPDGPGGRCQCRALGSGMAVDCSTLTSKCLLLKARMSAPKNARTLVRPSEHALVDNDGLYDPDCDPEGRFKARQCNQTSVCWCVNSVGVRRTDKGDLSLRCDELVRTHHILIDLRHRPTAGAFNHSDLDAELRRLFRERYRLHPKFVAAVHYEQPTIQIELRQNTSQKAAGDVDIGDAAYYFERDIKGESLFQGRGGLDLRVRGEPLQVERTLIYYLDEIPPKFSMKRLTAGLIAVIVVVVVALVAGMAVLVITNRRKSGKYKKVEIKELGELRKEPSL


Assays:
[1] = biological target: T1, human TROP2 protein (Sino Biological, …); assay: BLI epitope binning (Octet), biotinylated human Trop2 on SA sensor; row = primary antibody; competitor (secondary antibody, column): PR001166
Experimental: (§1) The biotinylated mixture after the incubation was washed three times with PBS and a Zeba centrifugal desalting column (Thermo Fisher, #89882) to remove excess biotin. The biotinylated Trop2 protein was captured by an SA sensor (Pall ForteBio, #18-5019) with the loading baseline set at 0.3 nm. The sensor was immersed in a well of assay buffer containing 50 nM primary antibody for 300 s. […] The binding assay was performed by comparing the binding of the secondary antibody to Trop2 in the presence of the primary antibody to the blocking of the primary antibody itself.

[2] = biological target: T1, human TROP2 protein (Sino Biological, …); assay: BLI epitope binning (Octet), biotinylated human Trop2 on SA sensor; row = primary antibody; competitor (secondary antibody, column): hRS7
Experimental: as §1

[3] = biological target: T1, human TROP2 protein (Sino Biological, …); assay: BLI epitope binning (Octet), biotinylated human Trop2 on SA sensor; row = primary antibody; competitor (secondary antibody, column): PR001142
Experimental: as §1

[4] = biological target: T2, monkey Trop2 protein (Sino Biological, …); assay: BLI, Octet RED96; ratio against KD for human Trop2 protein
How it was run: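 Human or monkey Trop2 protein at 200 nM in PBS pH 7.4 with 0.1% BSA and 0.02% Tween 20 was loaded on the sensor. Association used 40 nM antibody for 3 min at 30° C, then dissociation ran 5 min in the same buffer. Signals were recorded in real time; KD, kon and koff were fitted.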

human Trop2 on cells = biological target: T3, human Trop2 on cells; assay: flow cytometry on BxPC-3 tumor cells (second panel of the table)
Experimental: BxPC-3 tumor cells (the Cell Bank of the Chinese Academy of Sciences, #TCHu 12) were digested with 3 mL of TrypLE, and the digestion was stopped with 7 mL of the corresponding medium. […] The cell solution was centrifuged, and the cells were washed once with PBS+[…] buffer. […] The cells were washed once with PBS+0.50% BSA. The cells were incubated at 4° C. for 1 h in the dark with 100 μL of Alexa Fluor 488 goat anti-human IgG (Life technologies, #A-11013) diluted at 1:1000, and washed twice with PBS+0.50% BSA. The cells were resuspended in 200 μL of PBS+0.50% BSA. The suspension was centrifuged at 4° C. for 5 min at 2000 rpm and tested using a FACS verse flow cytometer or NovoCyte flow cytometer (ACEA Biosciences). All procedures were performed on ice.

Inhibition rate (%) [1] | Inhibition rate (%) [2] | Inhibition rate (%) [3] | KD (monkey)/KD (human) [4] | EC50 (human Trop2 on cells) | Binder
102% | 21.8% | 85.4% |  |  | PR001166 (antibody, human IgG1, kappa, V domains shown, fully human IgG1/kappa; also called antibody No. (27)) VH: QVQLQESGPGLVKPSETLSLTCAVSGYSISSGYFWAWIRQPPGKGLEWIGSIYHSGRTHYNPSLKSRVIISLDTSKNQFSLKLRSVTAADSAVYYCAREGYASGSYYWGQGTLVTVSS VL: EIVMTQSPATLSVSPGERATLSCRSSQSVNNYLAWFQQKPGQAPRLLIYDSSTRATGIPARFSGSGSGTEFTLTISSLQSEDFAFYFCQQYENWPLTFGGGTKVEIKR
85.5% | 97.8% | 101% | 0.81 |  | PR001142 (antibody, human IgG1, kappa, V domains shown, fully human IgG1/kappa; also called antibody No. (9)) VH: QVQLQESGPGLVKPSGTLSLTCAVSGDSISSNNWWSWVRQPPGKGLEWIGEIYPGGNPNYNPSLKSRVTISVDKSKNQFSLKLNSVTAADTAVYYCARGSGVISYFDYWGQGTLVTVSS VL: DIQMTQSPSTLSASVGDRVTITCRASQSIGHWLAWYQQKPGKAPKLLIYKASSLESGVPSRFRGSGSGTEFTLTISSLQPDDFATYYCQQYSSYSPITFGQGSRLEIKR
5.24% | 96.4% | 98.1% |  | 1.71 nM | PR001165 (antibody, human IgG1, kappa, V domains shown, fully human IgG1/kappa; also called antibody No. (26)) VH: QVQLVESGGGVVQPGRSLRLSCEASGFTFSHYGMHWVRQAPGKGLEWVAVIWYDGIKTYYVESVKGRFTISRDNSKNTLNLQMNRLRAEDTAVYYCARDGGFGESNYYGLDVWGQGTTVTVSS VL: DIQLTQSPSFLSASVGDRVTITCRASQGISSYLGWYQQKPGKAPKLLIYIASTLQSGVPSRFSGSGSGTEFTLTISSLQPEDFATYYCQQLNSYPYTFGQGTKLEIKR
 |  |  | 2.16 |  | PR001162 (antibody, human IgG1, kappa, V domains shown, fully human IgG1/kappa; also called antibody No. (23)) VH: QVQLVESGGGVVQPGTSLRLSCVASGFTFSNDGMHWVRQAPGMGLEWVAIMWFDGGSKYYADSVKGRFTISRDNSKNTLYLQMNNLRAEDTAVYYCARDHPHYLGSGSFDYWGQGTLVTVSS VL: EIVLTQSPATLSLSPGERATLSCRASQSVSSYLAWYQQKPGQAPRLLIYDASNRATGIPARFSGSGSGTDFTLTISSLQAEDVAVYYCQQYYSTPYTFGQGTKLEIKR
7.34% | 96.5% | 93.3% |  | 2.67 nM | comparative example 2 antibody Tab (hRS7) (antibody, human IgG1, kappa, V domains shown, prepared on the basis of sacituzumab govitecan (ChemPartner, #T07-001); naked antibody) VH: QVQLQQSGSELKKPGASVKVSCKASGYTFTNYGMNWVKQAPGQGLKWMGWINTYTGEPTYTDDFKGRFAFSLDTSVSTAYLQISSLKADDTAVYFCARGGFGSSYWYFDVWGQGSLVTVSS VL: DIQLTQSPSSLSASVGDRVSITCKASQDVSIAVAWYQQKPGKAPKLLIYSASYRYTGVPDRFSGSGSGTDFTLTISSLQPEDFAVYYCQQHYITPLTFGAGTKVEIKR
 |  |  | 2.27 |  | PR001133 (antibody, human IgG1, kappa, V domains shown, fully human IgG1/kappa; also called antibody No. (5)) VH: QVNLVESGGGVVQPGRSLKLSCAASGFTFSSYGMHWVRQAPGKGLEWVALIWSDGTNRYYTESVKGRFTISRDNSKNTLSLQMKSLRAEDTAVYYCAKDGWGTYGEYFQHWGQGTLVTVSS VL: DIQMTQSPSSLSASVGDRVTITCRASQNINSYLHWYQQKPGKAPKLLIYAASSLQSGVPSRFSGSGSGTDFTLTISSLQPEDFAIYYCQQSYSIPPITFGQGTRLEIKR
 |  |  | 1.62 |  | PR001139 (antibody, human IgG1, kappa, V domains shown, fully human IgG1/kappa; also called antibody No. (8)) VH: QVQLVESGGGVVQPGRSLRLSCAASGFTFSSFGMQWVRQGPGKGLEWVAVMWFDGSNKYYVDSVKGRFTISRDNSKNTLYLQMNSLRAEDTAVYYCARLDFSGWPLIDYWGQGTLVTVSS VL: not shown
